Experimental findings from US20050239064A1 (published 2005) are described below.

For assay [1], the target named is T1, Drosophila Mastermind (Mam) tagged at its amino terminus with the Flag epitope, expressed from pcDNA3 in 293T … (Drosophila, UniProt P21519 1-1594).
T1 construct: Expressed inside transfected human 293T cells
The assay can be described thus: co-expression in 293T cells, indirect immunofluorescence. From the text:
Mastermind and the entire intracellular domain of Drosophila Notch were co-expressed from pcDNA3 vectors (obtained from Invitrogen, Carlsbad, Calif.). Intracellular Notch was visualized with the 9C6 monoclonal antibody (Rebay, 1983, Thesis, Yale University) and a Cy-2-conjugated goat anti-mouse IgG secondary antibody. Flag epitope-tagged Mam was visualized with an anti-Flag polyclonal antibody and a Cy-5-conjugated goat anti-rabbit secondary antibody. Nuclei were counterstained with DAPI. In the absence of Mam, intracellular Notch is homogeneously distributed throughout the nucleoplasm; however, when co-expressed with Mam, intracellular Notch accumulates in nuclear bodies.

Assay [2] addresses T2, truncated Mam protein (carboxy-terminal 32 amino acids of full-length Drosophila Mastermind deleted) fused to … (Drosophila, UniProt P21519 1-1562).
T2 construct: also called truncated Mam fusion protein
The assay is described as follows: yeast two-hybrid, lacZ reporter. From the text: FIG. 13 is a graph showing Mam-Mip complex driven transcription in a two-hybrid analysis in yeast. The yeast strain EGY48 was co-transformed with a plasmid encoding a Mam-Gal4 DNA binding domain fusion protein and either a plasmid encoding Mip1, Mip30 or Mip6 fused to the E. coli B42 transactivation domain, or a control plasmid (pJG4-5). The DNA binding domain was derived from plasmid pEG202. […] In the presence of glucose, the expression of Mam is repressed and only a very low level of β-galactosidase activity is detected. In the presence of galactose, the expression of Mam is induced and a large increase in β-galactosidase activity is observed with those proteins that interact with Mam. Extracts were prepared and activity measured from equal number of cells.
To elucidate the function of Mam and its role in Notch signaling, proteins with which Mam interacts were identified. Complementary DNA encoding a truncated Mam protein, in which the carboxy-terminal 32 amino acids of full-length Mam were deleted, was fused to the Gal4 DNA-binding domain encoded by the yeast expression vector pEG202. A truncated Mam fusion protein was used because it elicited a lower autonomous transactivational response from yeast reporter genes than full-length Mam. […]

T1 sequence (P21519 other isoform, or with tags, fused parts or gaps): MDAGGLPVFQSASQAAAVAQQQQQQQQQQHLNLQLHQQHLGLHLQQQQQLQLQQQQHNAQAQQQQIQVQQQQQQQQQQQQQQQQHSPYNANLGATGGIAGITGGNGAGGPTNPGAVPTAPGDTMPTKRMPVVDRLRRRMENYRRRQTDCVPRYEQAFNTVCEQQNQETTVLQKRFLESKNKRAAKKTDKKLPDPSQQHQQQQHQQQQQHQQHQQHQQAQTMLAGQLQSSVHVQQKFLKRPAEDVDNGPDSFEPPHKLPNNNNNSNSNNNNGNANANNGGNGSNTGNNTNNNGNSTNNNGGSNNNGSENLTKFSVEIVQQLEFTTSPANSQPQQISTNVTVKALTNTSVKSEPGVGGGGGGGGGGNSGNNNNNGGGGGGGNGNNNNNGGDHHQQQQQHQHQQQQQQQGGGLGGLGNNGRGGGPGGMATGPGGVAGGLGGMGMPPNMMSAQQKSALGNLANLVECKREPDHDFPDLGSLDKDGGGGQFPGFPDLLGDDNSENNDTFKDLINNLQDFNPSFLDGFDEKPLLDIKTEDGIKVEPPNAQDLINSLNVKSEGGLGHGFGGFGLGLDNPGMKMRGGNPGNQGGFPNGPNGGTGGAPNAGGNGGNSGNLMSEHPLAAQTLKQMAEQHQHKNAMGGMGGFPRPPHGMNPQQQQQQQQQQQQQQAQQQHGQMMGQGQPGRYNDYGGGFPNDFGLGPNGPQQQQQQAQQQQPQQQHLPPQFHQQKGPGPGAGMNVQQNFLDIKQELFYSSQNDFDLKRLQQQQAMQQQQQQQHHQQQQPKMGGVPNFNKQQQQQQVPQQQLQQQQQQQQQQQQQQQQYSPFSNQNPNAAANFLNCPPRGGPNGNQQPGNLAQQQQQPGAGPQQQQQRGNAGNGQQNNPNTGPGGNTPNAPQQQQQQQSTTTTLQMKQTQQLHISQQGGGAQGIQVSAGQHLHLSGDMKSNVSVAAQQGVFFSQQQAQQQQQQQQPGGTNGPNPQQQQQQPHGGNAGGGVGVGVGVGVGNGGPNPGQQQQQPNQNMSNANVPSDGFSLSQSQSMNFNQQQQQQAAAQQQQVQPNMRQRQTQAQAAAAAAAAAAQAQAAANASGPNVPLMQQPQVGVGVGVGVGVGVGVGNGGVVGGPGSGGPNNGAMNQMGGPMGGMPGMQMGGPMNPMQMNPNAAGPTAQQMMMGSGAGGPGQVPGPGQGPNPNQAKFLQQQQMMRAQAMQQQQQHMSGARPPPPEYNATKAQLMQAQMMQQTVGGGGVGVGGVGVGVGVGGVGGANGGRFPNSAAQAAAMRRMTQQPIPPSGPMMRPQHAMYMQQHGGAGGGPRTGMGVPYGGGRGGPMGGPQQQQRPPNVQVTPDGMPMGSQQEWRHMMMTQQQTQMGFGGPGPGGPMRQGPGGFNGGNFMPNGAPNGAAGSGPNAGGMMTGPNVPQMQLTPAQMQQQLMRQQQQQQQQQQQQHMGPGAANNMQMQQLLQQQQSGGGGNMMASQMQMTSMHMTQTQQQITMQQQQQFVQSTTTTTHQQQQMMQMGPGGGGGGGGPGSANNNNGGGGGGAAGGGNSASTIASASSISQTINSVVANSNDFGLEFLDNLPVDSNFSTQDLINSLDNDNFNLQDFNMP
T2 sequence (P21519 other isoform, or with tags, fused parts or gaps limits assumed): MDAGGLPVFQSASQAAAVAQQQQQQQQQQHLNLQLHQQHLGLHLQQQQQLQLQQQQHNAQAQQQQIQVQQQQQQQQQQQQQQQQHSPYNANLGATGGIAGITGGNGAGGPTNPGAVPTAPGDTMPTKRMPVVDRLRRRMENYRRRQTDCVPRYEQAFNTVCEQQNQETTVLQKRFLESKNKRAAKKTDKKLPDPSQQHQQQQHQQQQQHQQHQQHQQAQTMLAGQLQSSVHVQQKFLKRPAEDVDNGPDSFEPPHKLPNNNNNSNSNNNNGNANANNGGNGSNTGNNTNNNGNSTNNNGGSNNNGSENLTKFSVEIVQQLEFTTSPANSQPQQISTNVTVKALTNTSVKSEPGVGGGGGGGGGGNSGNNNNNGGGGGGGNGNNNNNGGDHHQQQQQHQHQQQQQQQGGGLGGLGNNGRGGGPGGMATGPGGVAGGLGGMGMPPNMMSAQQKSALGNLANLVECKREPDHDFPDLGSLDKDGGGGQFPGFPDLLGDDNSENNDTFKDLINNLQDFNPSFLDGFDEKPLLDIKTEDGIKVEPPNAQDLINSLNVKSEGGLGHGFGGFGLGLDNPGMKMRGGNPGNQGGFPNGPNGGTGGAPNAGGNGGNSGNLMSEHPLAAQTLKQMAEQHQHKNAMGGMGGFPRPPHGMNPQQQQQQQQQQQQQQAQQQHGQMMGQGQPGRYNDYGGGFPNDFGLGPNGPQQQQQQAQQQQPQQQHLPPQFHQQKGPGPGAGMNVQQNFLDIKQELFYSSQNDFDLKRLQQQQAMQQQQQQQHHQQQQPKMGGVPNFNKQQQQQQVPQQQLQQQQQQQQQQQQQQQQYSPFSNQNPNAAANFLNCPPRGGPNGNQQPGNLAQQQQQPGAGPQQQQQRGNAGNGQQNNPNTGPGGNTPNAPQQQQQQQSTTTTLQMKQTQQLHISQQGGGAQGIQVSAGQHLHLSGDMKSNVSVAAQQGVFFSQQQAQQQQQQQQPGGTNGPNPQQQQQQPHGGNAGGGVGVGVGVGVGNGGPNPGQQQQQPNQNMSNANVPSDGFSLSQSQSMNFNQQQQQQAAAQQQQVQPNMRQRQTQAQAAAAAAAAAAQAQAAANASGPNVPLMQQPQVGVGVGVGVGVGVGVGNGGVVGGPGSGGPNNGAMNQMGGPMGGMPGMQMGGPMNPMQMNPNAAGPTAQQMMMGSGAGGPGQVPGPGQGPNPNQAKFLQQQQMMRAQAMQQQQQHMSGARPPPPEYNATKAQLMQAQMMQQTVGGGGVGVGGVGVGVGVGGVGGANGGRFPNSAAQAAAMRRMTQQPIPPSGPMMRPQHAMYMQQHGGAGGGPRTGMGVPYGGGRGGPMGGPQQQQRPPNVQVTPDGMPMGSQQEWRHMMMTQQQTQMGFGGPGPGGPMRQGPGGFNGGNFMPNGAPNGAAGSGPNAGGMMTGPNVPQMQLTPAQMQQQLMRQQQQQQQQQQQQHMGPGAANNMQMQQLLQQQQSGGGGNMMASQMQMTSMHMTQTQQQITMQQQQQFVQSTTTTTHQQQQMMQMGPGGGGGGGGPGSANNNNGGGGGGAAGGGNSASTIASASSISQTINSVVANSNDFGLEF

B1: entire intracellular domain of Drosophila Notch, expressed from pcDNA3 in 293T cells (receptor, UniProt P07207 1767-2703, looked up)
chain: QRKRAHGVTWFPEGFRAPAAVMSRRRRDPHGQEMRNLNKQVAMQSQGVGQPGAHWSDDESDMPLPKRQRSDPVSGVGLGNNGGYASDHTMVSEYEEADQRVWSQAHLDVVDVRAIMTPPAHQDGGKHDVDARGPCGLTPLMIAAVRGGGLDTGEDIENNEDSTAQVISDLLAQGAELNATMDKTGETSLHLAARFARADAAKRLLDAGADANCQDNTGRTPLHAAVAADAMGVFQILLRNRATNLNARMHDGTTPLILAARLAIEGMVEDLITADADINAADNSGKTALHWAAAVNNTEAVNILLMHHANRDAQDDKDETPLFLAAREGSYEACKALLDNFANREITDHMDRLPRDVASERLHHDIVRLLDEHVPRSPQMLSMTPQAMIGSPPPGQQQPQLITQPTVISAGNGGNNGNGNASGKQSNQTAKQKAAKKAKLIEGSPDNGLDATGSLRRKASSKKTSAASKKAANLNGLNPGQLTGGVSGVPGVPPTNSAAQAAAAAAAAVAAMSHELEGSPVGVGMGGNLPSPYDTSSMYSNAMAAPLANGNPNTGAKQPPSYEDCIKNAQSMQSLQGNGLDMIKLDNYAYSMGSPFQQELLNGQGLGMNGNGQRNGVGPGVLPGGLCGMGGLSGAGNGNSHEQGLSPPYSNQSPPHSVQSSLALSPHAYLGSPSPAKSRPSLPTSPTHIQAMRHATQQKQFGGSNLNSLLGGANGGGVVGGGGGGGGGVGQGPQNSPVSLGIISPTGSDMGIMLAPPQSSKNSAIMQTISPQQQQQQQQQQQQQHQQQQQQQQQQQQQQQQQLGGLEFGSAGLDLNGFCGSPDSFHSGQMNPPSIQSSMSGSSPSTNMLSPSSQHNQQAFYQYLTPSSQHSGGHTPQHLVQTLDSYPTPSPESPGHWSSSSPRSNSDWSEGVQSPAANNLYISGGHQANKGSEAIYI
notes: domain: entire intracellular domain; also called intracellular Notch
Consider B1, for which, in assay [1], the binding result was “binds”.

B2: Mip6 two-hybrid clone, amino-terminally truncated, fused to the E. coli B42 transactivation domain encoded by pJG4-5 (other, not shown: large carriers)
chain: PKTKQSTFVVSPKPEPKSPAVAFLQPSIPLRSSNQPQTVVGSSSTGRKPLNVGLTMEWTKKKFFSAASGIPQRRQNQIKQPYANIVSPIRTYTQKSGTAPLMSTFRPTSSDMLSTLAISELEQESRLCHPKALFATKDETPKSSEAESLIINGIDSAADLLPKKAYISSEIKHVVDERTPLPMPKVPQIQKYLNSAVEPTVMRHDGKMKMPGEAVRNPSSSHIPRRANHSLADLSLASGDVSLYTIRDAQKF
Take B2: the binding result in assay [2] is reported as “binds”.
